Key:
[1] = target: the molecule itself; assay: negative-stain electron microscopy; filament formation of purified mAire CARD variants after cleavage of the NusA tag with HRV 3C (4 °C, 16 h); diluted in TNE buffer (100 mM Tris pH 8, 50 mM NaCl, 10 mM EDTA) to ~50–200 µg/ml, uranyl formate stain; WT in Fig. 1b also denatured and refolded
[2] = target: the molecule itself; assay: negative-stain electron microscopy; filament formation of purified hAire CARD variants refolded from 6 M GdHCl by dialysis (20 mM HEPES pH 7.5, 1 M KCl, 5 mM βME, 16 h, 4 °C) and kept at 4 °C for another 24 h; diluted in TNE buffer to ~50–200 µg/ml, uranyl formate stain

B1: mouse Aire (mAire) CARD, wild type (domain or fragment, UniProt Q9Z0E3 1-105, looked up)
chain: MAGGDGMLRRLLRLHRTEIAVAIDSAFPLLHALADHDVVPEDKFQETLRLKEKEGCPQAFHALLSWLLTRDSGAILDFWRILFKDYNLERYSRLHSILDGFPKDV
notes: Autoimmune Regulator (Aire), mouse, CARD, aa 1-105, subcloned into pET50; Forms filaments after the NusA tag is cleaved off at the 3C site; also called WT mAire CARD; source: E. coli BL21(DE3), co-expressed with GroEL/ES + trigger factor, purified (Ni-NTA); tag cleaved with HRV 3C protease; not shown: His6-NusA-His6, N-terminal, cleaved
B1: binds [1].

B2: mouse Aire (mAire) CARD K53A/E54A (domain or fragment, UniProt Q9Z0E3 1-105, looked up)
chain: MAGGDGMLRRLLRLHRTEIAVAIDSAFPLLHALADHDVVPEDKFQETLRLKEAAGCPQAFHALLSWLLTRDSGAILDFWRILFKDYNLERYSRLHSILDGFPKDV
notes: Autoimmune Regulator (Aire), mouse, CARD, aa 1-105, subcloned into pET50; source: E. coli BL21(DE3), co-expressed with GroEL/ES + trigger factor, purified (Ni-NTA; tag cleaved with HRV 3C protease); not shown: His6-NusA-His6, N-terminal, cleaved
B2: binds [1].

B3: mouse Aire (mAire) CARD K51A/E52A (domain or fragment, UniProt Q9Z0E3 1-105, looked up)
chain: MAGGDGMLRRLLRLHRTEIAVAIDSAFPLLHALADHDVVPEDKFQETLRLAAKEGCPQAFHALLSWLLTRDSGAILDFWRILFKDYNLERYSRLHSILDGFPKDV
notes: as for B2
B3: binds [1].

B4: mouse Aire (mAire) CARD R70A/D71A (domain or fragment, UniProt Q9Z0E3 1-105, looked up)
chain: MAGGDGMLRRLLRLHRTEIAVAIDSAFPLLHALADHDVVPEDKFQETLRLKEKEGCPQAFHALLSWLLTAASGAILDFWRILFKDYNLERYSRLHSILDGFPKDV
notes: Autoimmune Regulator (Aire), mouse, CARD, aa 1-105, subcloned into pET50; The results print R70A/D71A, the methods R70A/R71A; also called R70A/R71A (so printed in the methods); source: E. coli BL21(DE3), co-expressed with GroEL/ES + trigger factor, induced at 25 °C for 4 h, purified (Ni-NTA; tag cleaved with HRV 3C protease); not shown: His6-NusA-His6, N-terminal, cleaved
B4: binds [1].

B5: human Aire (hAire) CARD, wild type (domain or fragment, UniProt O43918 1-106, looked up)
chain: MATDAALRRLLRLHRTEIAVAVDSAFPLLHALADHDVVPEDKFQETLHLKEKEGCPQAFHALLSWLLTQDSTAILDFWRVLFKDYNLERYGRLQPILDSFPKDVDL
notes: Autoimmune Regulator (Aire), human, CARD, aa 1-106, subcloned into pET47; Construct His6-3C-hAire CARD; also called WT hAire CARD
B5: binds [2].

Source: article PMC7118133, “Dual functions of Aire CARD multimerization in the transcriptional regulation of T cell tolerance” (Nature Communications, 2020)
